One molecule from paper PMC3467263, “FXR Controls the Tumor Suppressor NDRG2 and FXR Agonists Reduce Liver Tumor Growth and Metastasis in an Orthotopic Mouse Xenograft Model” (PLoS ONE, 2012) can be followed below.

The test deals with T1, human FXR^aa187–472 fused to GST (human, UniProt Q96RI1-2 187-472).
T1 construct: Detected in the TR-FRET assay by europium-labelled anti-GST; also called human FXR-LBD; hFXR; source: purified
T1 sequence (looked up): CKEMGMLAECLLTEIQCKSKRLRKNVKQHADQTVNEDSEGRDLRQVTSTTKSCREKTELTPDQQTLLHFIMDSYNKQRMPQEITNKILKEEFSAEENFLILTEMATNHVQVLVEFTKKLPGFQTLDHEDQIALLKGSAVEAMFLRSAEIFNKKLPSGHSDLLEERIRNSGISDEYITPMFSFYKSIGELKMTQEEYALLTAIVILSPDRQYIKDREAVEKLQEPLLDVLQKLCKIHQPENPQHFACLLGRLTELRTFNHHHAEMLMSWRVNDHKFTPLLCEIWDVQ
Briefly: FRET or BRET; homogeneous TR-FRET: biotinylated SRC-1 peptide (0.4 µM), 200 ng streptavidin-allophycocyanin, 6 ng europium-labelled anti-GST and 2.5 ng GST-FXR-LBD in 25 µL of 20 mM Tris/HCl pH 7.5, 5 mM MgCl2, 60 mM KCl, 1 mM DTT, 0.9 g/L BSA; 60 min incubation; FXR agonist (GW4064, PX20606 or PX20350) titrated; duplicates. Conditions: both partners purified.

B1: biotinylated SRC-1 peptide b-[residues removed]-COOH (peptide)
peptide: CPSSHSSLTERHKILHRLLQEGSPS
HELM: PEPTIDE1{[O=C1N[C@H]2[C@H](CS[C@H]2CCCCC(=O)[*:2])N1].C.P.S.S.H.S.S.L.T.E.R.H.K.I.L.H.R.L.L.Q.E.G.S.P.S}$$$$V2.0
SMILES: CC[C@H](C)[C@H](NC(=O)[C@H](CCCCN)NC(=O)[C@H](Cc1c[nH]cn1)NC(=O)[C@H](CCCNC(=N)N)NC(=O)[C@H](CCC(=O)O)NC(=O)[C@@H](NC(=O)[C@H](CC(C)C)NC(=O)[C@H](CO)NC(=O)[C@H](CO)NC(=O)[C@H](Cc1c[nH]cn1)NC(=O)[C@H](CO)NC(=O)[C@H](CO)NC(=O)[C@@H]1CCCN1C(=O)[C@H](CS)NC(=O)CCCC[C@@H]1SC[C@@H]2NC(=O)N[C@@H]21)[C@@H](C)O)C(=O)N[C@@H](CC(C)C)C(=O)N[C@@H](Cc1c[nH]cn1)C(=O)N[C@@H](CCCNC(=N)N)C(=O)N[C@@H](CC(C)C)C(=O)N[C@@H](CC(C)C)C(=O)N[C@@H](CCC(N)=O)C(=O)N[C@@H](CCC(=O)O)C(=O)NCC(=O)N[C@@H](CO)C(=O)N1CCC[C@H]1C(=O)N[C@@H](CO)C(=O)O
notes: Coupled to streptavidin-allophycocyanin through its biotin in the assay
Turning to B1, the binding result was “binds”.
